Our source for the activity values is US20240301385, “DNA MODIFYING ENZYMES AND ACTIVE FRAGMENTS AND VARIANTS THEREOF AND METHODS OF USE” (LIFEEDIT THERAPEUTICS, INC., published 2024).

One data set concerns the target T1, APG30127-L32-nAPG07433.1 (synthetic).
T1 chain: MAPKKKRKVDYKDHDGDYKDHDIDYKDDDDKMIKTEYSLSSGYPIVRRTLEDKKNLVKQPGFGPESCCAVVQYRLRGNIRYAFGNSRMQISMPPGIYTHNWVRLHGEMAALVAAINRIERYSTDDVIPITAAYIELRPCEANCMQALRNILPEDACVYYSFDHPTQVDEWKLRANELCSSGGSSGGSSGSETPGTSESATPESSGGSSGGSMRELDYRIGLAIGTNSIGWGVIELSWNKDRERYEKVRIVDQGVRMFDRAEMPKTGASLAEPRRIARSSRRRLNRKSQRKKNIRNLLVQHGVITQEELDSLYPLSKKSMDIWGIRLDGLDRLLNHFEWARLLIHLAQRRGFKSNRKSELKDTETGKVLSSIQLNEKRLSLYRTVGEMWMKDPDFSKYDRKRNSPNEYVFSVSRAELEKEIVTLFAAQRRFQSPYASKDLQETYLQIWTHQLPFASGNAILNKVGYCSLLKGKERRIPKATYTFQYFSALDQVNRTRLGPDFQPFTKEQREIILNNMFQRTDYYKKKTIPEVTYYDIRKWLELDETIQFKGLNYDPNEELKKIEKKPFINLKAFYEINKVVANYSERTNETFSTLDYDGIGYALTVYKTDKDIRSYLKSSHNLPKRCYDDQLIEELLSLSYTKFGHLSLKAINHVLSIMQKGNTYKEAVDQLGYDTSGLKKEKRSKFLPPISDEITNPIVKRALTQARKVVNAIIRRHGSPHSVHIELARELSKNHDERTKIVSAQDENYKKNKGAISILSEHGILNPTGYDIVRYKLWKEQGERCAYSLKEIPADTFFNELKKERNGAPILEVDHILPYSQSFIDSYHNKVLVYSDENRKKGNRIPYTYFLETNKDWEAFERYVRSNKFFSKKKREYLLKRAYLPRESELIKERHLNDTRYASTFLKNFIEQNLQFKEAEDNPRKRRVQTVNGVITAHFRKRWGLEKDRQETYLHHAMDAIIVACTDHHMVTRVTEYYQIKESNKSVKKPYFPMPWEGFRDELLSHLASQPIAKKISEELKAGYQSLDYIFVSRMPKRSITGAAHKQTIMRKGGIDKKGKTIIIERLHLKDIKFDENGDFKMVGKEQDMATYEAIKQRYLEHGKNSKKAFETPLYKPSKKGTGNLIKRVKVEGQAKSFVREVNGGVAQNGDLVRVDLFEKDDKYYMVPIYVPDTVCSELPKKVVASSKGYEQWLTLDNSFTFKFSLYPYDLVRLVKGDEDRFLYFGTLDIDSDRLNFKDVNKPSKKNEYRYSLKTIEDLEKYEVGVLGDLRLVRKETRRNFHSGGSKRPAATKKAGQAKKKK
The data set can be described thus: cell_activity; HEK293FT; PAM SEQ 152. The conditions noted are these: tags: SV40 NLS, 3xFLAG N-term; nucleoplasmin NLS C-term. Put shortly:
(§1)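 Editing read out by next-generation sequencing (MiSeq 2×250) of PCR amplicons spanning the target site, analysed for INDELs or % cytosine conversion per position (position 1 nearest PAM).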

The next data set deals with T2, APG30128-L32-nAPG07433.1 (synthetic).
T2 chain: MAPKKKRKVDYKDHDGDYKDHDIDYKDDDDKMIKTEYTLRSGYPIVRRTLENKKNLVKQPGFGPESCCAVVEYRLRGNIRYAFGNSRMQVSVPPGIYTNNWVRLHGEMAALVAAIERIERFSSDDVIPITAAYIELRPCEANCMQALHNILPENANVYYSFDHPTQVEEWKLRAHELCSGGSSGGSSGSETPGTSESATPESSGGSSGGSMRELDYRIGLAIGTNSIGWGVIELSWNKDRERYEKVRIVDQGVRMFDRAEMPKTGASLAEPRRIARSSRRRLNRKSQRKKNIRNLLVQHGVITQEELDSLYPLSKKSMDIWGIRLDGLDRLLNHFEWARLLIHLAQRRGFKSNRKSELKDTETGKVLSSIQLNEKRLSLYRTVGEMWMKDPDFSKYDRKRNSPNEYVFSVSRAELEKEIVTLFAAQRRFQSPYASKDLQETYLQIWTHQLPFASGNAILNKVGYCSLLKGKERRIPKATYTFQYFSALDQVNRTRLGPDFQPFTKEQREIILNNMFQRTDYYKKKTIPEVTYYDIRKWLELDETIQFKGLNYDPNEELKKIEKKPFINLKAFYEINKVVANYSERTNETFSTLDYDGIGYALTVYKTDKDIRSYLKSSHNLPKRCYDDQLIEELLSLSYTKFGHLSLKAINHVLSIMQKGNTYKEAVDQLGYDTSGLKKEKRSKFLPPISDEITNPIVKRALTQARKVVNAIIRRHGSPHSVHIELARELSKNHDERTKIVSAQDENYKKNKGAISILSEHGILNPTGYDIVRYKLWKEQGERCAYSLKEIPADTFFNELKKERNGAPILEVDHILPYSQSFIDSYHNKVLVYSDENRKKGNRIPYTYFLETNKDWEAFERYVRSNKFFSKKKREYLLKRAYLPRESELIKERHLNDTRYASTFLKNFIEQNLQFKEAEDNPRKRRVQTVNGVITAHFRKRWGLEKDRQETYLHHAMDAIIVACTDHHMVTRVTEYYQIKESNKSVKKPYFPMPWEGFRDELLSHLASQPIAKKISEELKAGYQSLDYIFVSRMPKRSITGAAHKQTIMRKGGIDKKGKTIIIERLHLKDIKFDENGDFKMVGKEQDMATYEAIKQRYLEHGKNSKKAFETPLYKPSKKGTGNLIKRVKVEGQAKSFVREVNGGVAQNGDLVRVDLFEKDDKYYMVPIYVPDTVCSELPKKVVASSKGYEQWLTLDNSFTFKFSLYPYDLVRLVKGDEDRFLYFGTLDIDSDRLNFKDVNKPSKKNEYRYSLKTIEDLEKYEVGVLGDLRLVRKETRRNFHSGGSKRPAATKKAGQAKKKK
The data set can be described thus: cell_activity; HEK293FT; PAM SEQ 152. The conditions noted are these: tags: SV40 NLS, 3xFLAG N-term; nucleoplasmin NLS C-term. Put shortly:
as §1

B1: SGN000194 sgRNA ; SGN000194 target (ssRNA ; dsDNA)
RNA: GCCGCACAGCAUUCAGGUCGGUCAUAGUUCCAUUAAAGCCAAAAGUGGCUUUGAUGUUUCUAUGAUAAGGGUUUCGACCCGUGGCGUCGGGGAUCGCCUGCCCAUUGAAAUGGGCUUCUCCCCAUUUAUU
DNA 1: GCCGCACAGCATTCAGGTCG
DNA 2: CGACCTGAATGCTGTGCGGC
Turning to B1, the activity with APG30127-L32-nAPG07433.1 was 9.53 % mutated reads.

B2: SGN000930 sgRNA ; SGN000930 target (ssRNA ; dsDNA)
RNA: GAACAACUCAAAUGGAAAUGAAUAUGUCAUAGUUCCAUGAAAGCCAAAAGUGGCUUUGAUGUUUCUAUGAUAAGGGUUUCGGCCCGUGGCGUCGGGGAUCGCCUGCCCAUUCCGAUGGGCUUCUCCCCAUUUAUU
DNA 1: GAACAACTCAAATGGAAATGAATAT
DNA 2: ATATTCATTTCCATTTGAGTTGTTC
For B2, the activity with APG30128-L32-nAPG07433.1 is 2.03 % mutated reads.
